Molecular target: β-amyloid peptide (1-42), P05067
Sequence (P05067 whole entry, looked up, tested part not stated): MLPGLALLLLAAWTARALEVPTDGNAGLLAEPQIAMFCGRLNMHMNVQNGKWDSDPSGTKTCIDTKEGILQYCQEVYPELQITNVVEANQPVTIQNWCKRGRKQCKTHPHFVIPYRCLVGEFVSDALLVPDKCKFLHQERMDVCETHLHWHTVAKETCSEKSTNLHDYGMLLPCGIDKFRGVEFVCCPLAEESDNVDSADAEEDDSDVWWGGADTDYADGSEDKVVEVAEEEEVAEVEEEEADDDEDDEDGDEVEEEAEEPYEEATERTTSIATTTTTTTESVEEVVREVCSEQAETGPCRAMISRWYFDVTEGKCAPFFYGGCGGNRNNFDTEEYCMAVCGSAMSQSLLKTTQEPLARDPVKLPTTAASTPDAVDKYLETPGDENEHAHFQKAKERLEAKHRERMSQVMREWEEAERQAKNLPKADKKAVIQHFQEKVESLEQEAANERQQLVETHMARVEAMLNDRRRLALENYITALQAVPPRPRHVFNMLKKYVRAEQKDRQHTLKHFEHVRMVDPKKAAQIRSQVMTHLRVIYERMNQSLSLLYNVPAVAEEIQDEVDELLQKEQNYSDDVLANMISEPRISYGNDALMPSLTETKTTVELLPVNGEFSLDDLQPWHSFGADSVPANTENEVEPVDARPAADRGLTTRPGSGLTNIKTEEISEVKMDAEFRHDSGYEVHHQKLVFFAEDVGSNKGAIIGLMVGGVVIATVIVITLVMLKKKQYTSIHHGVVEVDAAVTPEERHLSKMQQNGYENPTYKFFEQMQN

B1: Fab-neprilysin (humanized 3E10 Fab fused through a Gly-Ser linker to the human neprilysin ectodomain) (protein)
chain 1: EVQLQESGGGVVQPGGSLRLSCAASGFTFSNYGMHWIRQAPGKGLEWVSYISSGSSTIYYADSVKGRFTISRDNSKNTLYLQMNSLRSEDTAVYYCARRGLLLDYWGQGTLVTVSSASTKGPSVFPLAPSSKSTSGGTAALGCLVKDYFPEPVTVSWNSGALTSGVHTFPAVLQSSGLYSLSSVVTVPSSSLGTQTYICNVNHKPSNTKVDKKVEPKSCDKTHTGGSGGGSGGGSGGYDDGICKSSDCIKSAARLIQNMDATTEPCTDFFKYACGGWLKRNVIPETSSRYGNFDILRDELEVVLKDVLQEPKTEDIVAVQKAKALYRSCINESAIDSRGGEPLLKLLPDIYGWPVATENWEQKYGASWTAEKAIAQLNSKYGKKVLINLFVGTDDKNSVNHVIHIDQPRLGLPSRDYYECTGIYKEACTAYVDFMISVARLIRQEERLPIDENQLALEMNKVMELEKEIANATAKPEDRNDPMLLYNKMTLAQIQNNFSLEINGKPFSWLNFTNEIMSTVNISITNEEDVVVYAPEYLTKLKPILTKYSARDLQNLMSWRFIMDLVSSLSRTYKESRNAFRKALYGTTSETATWRRCANYVNGNMENAVGRLYVEAAFAGESKHVVEDLIAQIREVFIQTLDDLTWMDAETKKRAEEKALAIKERIGYPDDIVSNDNKLNNEYLELNYKEDEYFENIIQNLKFSQSKQLKKLREKVDKDEWISGAAVVNAFYSSGRNQIVFPAGILQPPFFSAQQSNSLNYGGIGMVIGHEITHGFDDNGRNFNKDGDLVDWWTQQSASNFKEQSQCMVYQYGNFSWDLAGGQHLNGINTLGENIADNGGLGQAYRAYQNYIKKNGEEKLLPGLDLNHKQLFFLNFAQVWCGTYRPEYAVNSIKTDVHSPGNFRIIGTLQNSAEFSEAFHCRKNSYMNPEKKCRVW
chain 2: DIQMTQSPSSLSASVGDRVTISCRASKSVSTSSYSYMHWYQQKPEKAPKLLIKYASYLQSGVPSRFSGSGSGTDFTLTISSLQPEDVATYYCQHSREFPWTFGAGTKLELKRTVAAPSVFIFPPSDEQLKSGTASVVCLLNNFYPREAKVQWKVDNALQSGNSQESVTEQDSKDSTYSLSSTLTLSKADYEKHKVYACEVTHQGLSSPVTKSFNRGEC
  Abeta HPLC, per hr. (sample FabNEP 2.5): 0.5 per hr.
  Abeta HPLC, per hr. (sample FabNEP 3.6, pH 3.6 elution pool): 0.61 per hr.
  Abeta HPLC, per hr. (sample FabNEP 4.0, pH 4.0 elution pool): 0.66 per hr.
  Abeta HPLC, rate (sample FabNEP 2.5) (million sq unt/min): 0.0104
  Abeta HPLC, rate (sample FabNEP 3.6, pH 3.6 elution pool) (million sq unt/min): 0.0137
  Abeta HPLC, rate (sample FabNEP 4.0, pH 4.0 elution pool) (million sq unt/min): 0.0175
  Abeta HPLC, units/µL (sample FabNEP 2.5): 0.001 units/µL
  Abeta HPLC, units/µL (sample FabNEP 3.6, pH 3.6 elution pool): 0.0547 units/µL
  Abeta HPLC, units/µL (sample FabNEP 4.0, pH 4.0 elution pool): 0.035 units/µL
  Abeta HPLC, units/µg (sample FabNEP 2.5): 0.008 units/µg
  Abeta HPLC, units/µg (sample FabNEP 3.6, pH 3.6 elution pool): 0.01 units/µg
  Abeta HPLC, units/µg (sample FabNEP 4.0, pH 4.0 elution pool): 0.011 units/µg
  degradation of β-amyloid (1-42): The Fab portion does not inhibit degradation of β-amyloid (1-42).
  degradation of β-amyloid peptide (1-42), HPLC: Fab-NEP degrades β-amyloid peptide (1-42). The Fab conjugate does not appear to inhibit neprilysin activity, as compared to yeast NEP (yNEP).
